What all share (parameters): key: weak activation insufficient to carry out curve-fitting was detected; NC: no coupling was detected
The target of one experiment is T1, serotonin 5HT1A receptor (Homo sapiens, UniProt P08908).
T1 construct: expressed in transfected cells; host or cells: Saccharomyces cerevisiae strains MMY9 and MMY11, plasmid pDT-PGK-5-HT1A
T1 sequence (P08908 1-422): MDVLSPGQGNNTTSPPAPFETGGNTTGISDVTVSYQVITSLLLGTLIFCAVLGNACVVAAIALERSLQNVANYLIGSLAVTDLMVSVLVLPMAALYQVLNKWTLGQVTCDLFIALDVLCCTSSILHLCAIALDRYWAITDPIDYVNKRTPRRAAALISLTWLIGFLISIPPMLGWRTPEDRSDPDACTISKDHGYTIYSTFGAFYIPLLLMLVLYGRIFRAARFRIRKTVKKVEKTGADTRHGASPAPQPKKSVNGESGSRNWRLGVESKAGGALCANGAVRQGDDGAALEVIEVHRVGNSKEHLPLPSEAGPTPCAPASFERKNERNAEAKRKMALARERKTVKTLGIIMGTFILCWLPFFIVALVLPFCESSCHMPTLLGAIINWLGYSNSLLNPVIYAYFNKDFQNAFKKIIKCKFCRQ
As to the kind of experiment: CPRG assay, MMY11 cells expressing 5-HT1A receptor plus Gα subunit. The format is cell-based. The method, then:
(§1) Assay for combined FUS1-lacZ and FUS1-HIS3 Expression. In vivo assays of reporter gene induction (CPRG assays) were carried out by suspending cells to 0.02 OD600 in 200 μl SC-glucose (2%) lacking tryptophan, uracil and histidine. This medium was supplemented with agonists, and additionally 10 mM 3-aminotriazole and the β-galactosidase (lacZ) substrate chlorophenolred-β-D-galactopyranoside (CPRG; Boehringer) to a concentration of 0.1 mg/ml. To visualise the colour change reaction, the medium was buffered to pH 7 with 0.1 M sodium phosphate. The assay was conducted in a 96-well microtitre plate format. Plates were incubated for 24 hours without agitation, and absorbance at 570 nm was determined using a Victor microtitre plate reader (Wallac). EC50 values (+/−standard error) were estimated by curve-fitting, using the Robosage software package.
(§2) MMY11 was used in an experiment in which cells were transformed with pairs of plasmids as before, one to express a Gα subunit and the other a receptor expression construct. […] Where pheromone response pathway activation was detected, the agonist concentration required to yield a half-maximal response (EC50+/−standard error; all values in nM except where otherwise indicated) was determined by curve-fitting, and is shown in Table 4A. Where no coupling was detected, this is also indicated (NC).

The test system of experiment [1] is purinergic nucleotide P2Y2 receptor. As to the kind of experiment: CPRG assay, MMY9 cells expressing P2Y2 receptor plus Gα subunit. The format is cell-based, human. As to the method:
as §1
This experiment illustrates that, for certain receptors, the efficiency of coupling to the yeast pheromone response pathway can be enhanced by creating chimeras between yeast and mammalian Gα subunits. […] Agonist-dependent activation of FUS1-lacZ was determined by incubating cells in medium supplemented with the chromogenic, cell-permeant β-galacosidase (lacZ) substrate, chlorophenolred-β-D-galactopyranoside (CPRG; Boehringer Mannheim). […]

In experiment [2] the target is T2, purinergic nucleotide P2Y1 receptor (Homo sapiens, UniProt P47900).
T2 construct: expressed in transfected cells; host or cells: Saccharomyces cerevisiae strain MMY11, plasmid pDT-PGK-P2Y1
T2 sequence (P47900 whole entry): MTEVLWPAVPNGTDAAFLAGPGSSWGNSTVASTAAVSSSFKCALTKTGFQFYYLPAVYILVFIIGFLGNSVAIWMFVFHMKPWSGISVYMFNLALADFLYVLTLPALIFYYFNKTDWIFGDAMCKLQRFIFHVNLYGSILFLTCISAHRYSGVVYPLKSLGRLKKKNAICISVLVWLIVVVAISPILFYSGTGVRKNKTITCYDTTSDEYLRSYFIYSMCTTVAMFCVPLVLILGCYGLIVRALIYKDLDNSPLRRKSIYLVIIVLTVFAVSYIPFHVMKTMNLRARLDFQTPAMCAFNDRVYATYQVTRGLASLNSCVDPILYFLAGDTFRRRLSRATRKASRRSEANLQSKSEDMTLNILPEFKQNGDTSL
The experiment is described as follows: CPRG assay, MMY11 cells expressing P2Y1 receptor plus Gα subunit. It is filed as cell-based. The method, then: as §1, §2

The test system of experiment [3] is purinergic nucleotide P2Y2 receptor. The experiment is described as follows: CPRG assay, MMY11 cells expressing P2Y2 receptor plus Gα subunit. The format is cell-based, human. As to the method:
as §1, §2

Sequence of purinergic nucleotide P2Y2 receptor (P41231 1-347 limits assumed): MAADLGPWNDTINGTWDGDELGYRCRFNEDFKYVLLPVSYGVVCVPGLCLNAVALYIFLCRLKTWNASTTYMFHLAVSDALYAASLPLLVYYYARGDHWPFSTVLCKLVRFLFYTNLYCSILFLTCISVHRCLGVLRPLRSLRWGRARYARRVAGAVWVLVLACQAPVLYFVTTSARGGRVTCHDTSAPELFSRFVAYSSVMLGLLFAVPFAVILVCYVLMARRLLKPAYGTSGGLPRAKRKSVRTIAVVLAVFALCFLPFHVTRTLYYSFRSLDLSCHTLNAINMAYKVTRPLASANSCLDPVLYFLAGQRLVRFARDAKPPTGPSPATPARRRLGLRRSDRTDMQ

B1: Gpa1p: endogenous yeast Gα subunit, product of the GPA1 gene (protein, UniProt P08539 2-472, looked up)
Guanine nucleotide-binding …: GCTVSTQTIGDESDPFLQNKRANDVIEQSLQLEKQRDKNEIKLLLLGAGESGKSTVLKQLKLLHQGGFSHQERLQYAQVIWADAIQSMKILIIQARKLGIQLDCDDPINNKDLFACKRILLKAKALDYINASVAGGSDFLNDYVLKYSERYETRRRVQSTGRAKAAFDEDGNISNVKSDTDRDAETVTQNEDADRNNSSRINLQDICKDLNQEGDDQMFVRKTSREIQGQNRRNLIHEDIAKAIKQLWNNDKGIKQCFARSNEFQLEGSAAYYFDNIEKFASPNYVCTDEDILKGRIKTTGITETEFNIGSSKFKVLDAGGQRSERKKWIHCFEGITAVLFVLAMSEYDQMLFEDERVNRMHESIMLFDTLLNSKWFKDTPFILFLNKIDLFEEKVKSMPIRKYFPDYQGRVGDAEAGLKYFEKIFLSLNKTNKPIYVKRTCATDTQTMKFVLSAVTDLIIQQNLKKIGII
In the case of B1, the “coupling class where no EC50 could be fitted” value with serotonin 5HT1A receptor was “weak”; in experiment [1], “weak”; in experiment [2] it was “NC”; in experiment [3], “weak”.

These data come from US6509447B1, “G protein chimeras and methods of screening compounds” (Glaxo Welcome Inc., priority 1997, dated 2003).
